Biological target: 3xFlag20Q-htt (full-length humanized normal huntingtin, chimeric mouse/human exon 1 with a 20Q stretch and the human PRR, with a 3xFlag N-terminal epitope tag) (mouse | human)
Experiment: co-IP; 500 ug whole brain cytoplasmic extract (mice 13, 16 or 27 months old) with 5-6 ug FLAG M2 or 1C2 antibody overnight at 4°C, captured on Protein G-agarose beads for 3 hr; same extraction buffer; eluted by boiling in SDS sample buffer; bound and non-bound fractions blotted with 1C2 and MAB2166; control without antibody

## 140Q-htt (soluble full-length mutant huntingtin of the CAG140 knock-in allele, chimeric mouse/human exon 1 with a 140Q stretch and the human PRR) (natural protein)
  percent of soluble full-length mutant htt associated with 3xFlag20Q-htt: < 2.5%

Reference: paper PMC3499431
